Laboratory results from patent publication US20040101919A1 (TEXAS A AND M UNIVERSITY SYSTEM, published 2004).

B1: EF0089 A domain (EF0089A), N-terminal His6-tag fusion protein (other)
chain: EEVNSDGQLTLGEVKQTSQQEMTLALQGKAQPVTQEVVVHYSANVSIKAAHWAAPNNTRKIQVDDQKKQIQIELNQQALADTLVLTLNPTATEDVTFSYGQQQRALTLKTGTDPTESTAITSSPAASANEGSTEEASTNSSVPRSSEETVASTTKAIESKTTESTTVKPRVAGPTDISDYFTGDETTIIDNFEDPIYLNPDGTPATPPYKEDVTIHWNFNWSIPEDVREQMKAGDYFEFQLPGNLKPNKPGSGDLVDAEGNVYGTYTISEDGTVRFTFNERITSESDIHGDFSLDTHLNDSDGRGPGDWVIDIPTQEDLPPVVIPIVPDTEQQIDKQGHFDRTPNPSAITWTVDINQAMKDQTNPTVTETWPTGNTFKSVKVYELVMNLDGTIKEVGRELSPDEYTVDKNGNVTIKGDTNKAYRLEYQTTIDEAVIPDGGGDVPFKNHATLTSDNNPNGLDAEATVTATYGKMLDKRNIDYDEANQEFTWEINYNYGEQTIPKDQAVITDTMGDNLTFEPDSLHLYSVTFDDKGNEVVGAELVEGKDYKVVINGDGSFAIDFLHDVTGAVKIDYKTKVDGIVEGDVAVNNRVDVGTGQHSEDDGTASQQNIIKNTGAVDYQNSTIGWTLAVNQNNYLMENAVITDTYEPVPGLTMVPNSLVVKDTTTGAQLTLGKDFMVEITRNADGETGFKVSFIGAYAKTSDAFHITYTTFFDVTELDANNPALDHYRNTAAIDWTDEAGNNHHSEDSKPFKPLPAFDLNAQKSGVYNAVTKEITWTIAVNLSNNRLVDAFLTDPILTNQTYLAGSLKVYEGNTKPDGSVEKVKPTQPLTDITMEEPSEKNQNTWRVDFPNDSRTYVIEFKTSVDEKVIEGSASYDNTASYTNQGSSRDVTGKVSIQHGGESVKKGGEYHKDDPDHVYWHVMINGAQSVLDDVVITDTPSPNQVLDPESLVIYGTNVTEDGTITPDKSVILEEGKDYTLEVTTDNETGQQKIVVKMAHIEAPYYMEYRSLVTSSAAGSTDTVSNQVSITGNGSEVVHGDDNGDVVVDIDHSGGHATGTKGKIQLKKTAMDETTILAGAHFQIWDQAKTQVLREGTVDATGVITFGG
notes: Expressed in E. coli from pQE-30 and purified; not shown: N-terminal His6-tag from vector pQE-30
B2: EF2224 A domain (EF2224A), N-terminal His6-tag fusion protein (other)
chain: QEVTSDAEKTVEKDGLKVIGKIEDTSSQEDIKTVTYEVTNTRDVPIKDLILKQKNTNDSPIKFVLDTLSEERGPTSLEEQAKVETNEKDQTTDIKLLNLQPNSTRKITINGQITTKASNKLLVSVLIEDNEKGTLVIDLPSKDILADKESVSKEKQETSETKVENQANETASSTNEMTATTSNETKPEAGKAIESIQETALTQATESPEQPPLKAQPTGPLVPPTPGRGFNTPIYQSVHKGELFSTGNTNLKIANENTAAAQTFLNTRGASSGYAINNFPLEFADVDNDPNTYNSSRAYIDLNGAKEIAWAGLFWSASRYKGPAYGTNLSDEEISAPVQFTTPNGTVQRVSPQRYHRIDQDATNPGQRFGYNNTGFSNYADVTSILQGDKSATGSYTLADIPMTSSLNGQYQYYNFSGWSLFVVTKDQASKSRAFSIYYGARGNAAGTNNEFTMSNFLTAKQGNLDPIVTWFTVQGDKYWTGDNAQIKNSAGTWVNISNTLNPVNNAMNATVTDNDEHMVDKYPGKFAPDHPNFLDIDIDRMAIPEGVLNAGQNQINFRTTSSGDDYSTNAIGFAVNAETPEFEIKKEIVEPKETYKVGETITYRVSLKNTKADSEAINSVSKDALDGRLNYLPGSLKIISGPNSGEKTDASGDDQAEYDETNKQIIVRVGNGATATQGGSYKADTAETIYEFKARINERAKANELVPNSATVEAVDILTSAKVNETSNIVEAKIADEQVT
notes: as for B1
B3: EF1093 A domain (recombinant EF1093), N-terminal His6-tag fusion protein (other)
chain: EENGESAQLVIHKKKMTDLPDPLIQNSGKEMSEFDKYQGLADVTFSIYNVTNEFYEQRAAGASVDAAKQAVQSLTPGKPVAQGTTDANGNVTVQLPKKQNGKDAVYTIKEEPKEGVVAATNMVVAFPVYEMIKQTDGSYKYGTEELAVVHIYPKNVVANDGSLHVKKVGTAENEGLNGAEFVISKSEGSPGTVKYIQGVKDGLYTWTTDKEQAKRFITGKSYEIGENDFTEAENGTGELTVKNLEVGSYILEEVKAPNNAELIENQTKTPFTIEANNQTPVEKTVKNDTSKVDKTTPSLDGKDVAIGEKIKYQISVNIPLGIADKEGDANKYVKFNLVDKHDAALTFDNVTSGEYAYALYDGDTVIAPENYQVTEQANGFTVAVNPAYIPTLTPGGTLKFVYFMHLNEKADPTKGFKNEANVDNGHTDDQTPPTVEVVTGGKRFIKVDGDVTATQALAGASFVVRDQNSDTANYLKIDETTKAATWVKTKAEATTFTTTADGLVDITGLKYGTYYLEETVAPDDYVLLTNRIEFVVNEQSYGTTENLVSPEKVPNKHK
notes: not shown: N-terminal His6-tag from vector pQE-30
B4: EF1269 A domain (EF1269A), N-terminal His6-tag fusion protein (other)
chain: ETGYAQTEPTSTSETNQISATPNVVPRKQVGNIVTAIQLTDKEGNPLGTINQYTDIYLRIEFNLPDNTVNSGDTSVITLPEELRLEKNMTFNVVDDTGTVVAIAQTDVANKTVTLTYTDYVENHANISGSLYFTSLIDFENVENESKIPIYVTVEGEKIFAGDLDYQGEGDDVNEKFSKYSWFIEDDPTEIYNVLRINPTGQTYTDLEVEDVLKTESLSYMKDTMKIERGQWTLDGNAIWQFTPEEDITDQLAVQYGPDDRNFSVHFGNIGTNEYRITYKTKIDHLPEKGETFTNYAKLTENQTVVEEVEVSRVSQTGGGEANGEQYVVEIHKEDEAGQRLAGAEFELIRNSTNQTVAKITTDQNGTAIVKGLLKDNYTLVETKAPTGYQLSQNKIPITPEDFGKNLVALKTVVNHKISYQPVAASFLAGKVLLGKPLKDAEFQFELLDEKGTVLETVSNDTLGKIQFSPLTFETPGNYQYTIREVNTQQTGVSYDTHNLQVQVTVEALLGNLVATTQYDGGQVFTNHYTPEKPIESTTPPTSGTTDTTTNSTTETTSITIEKQAIRNKE
notes: as for B3

Key:
human fibrinogen [1] = molecular target: T1, human fibrinogen (human, UniProt P02671 20-629; P02675 31-491; P02679 27-437); experiment: ELISA, ECM protein coated, His-tag protein detected with anti-His6 mAb
T1 sequence 1: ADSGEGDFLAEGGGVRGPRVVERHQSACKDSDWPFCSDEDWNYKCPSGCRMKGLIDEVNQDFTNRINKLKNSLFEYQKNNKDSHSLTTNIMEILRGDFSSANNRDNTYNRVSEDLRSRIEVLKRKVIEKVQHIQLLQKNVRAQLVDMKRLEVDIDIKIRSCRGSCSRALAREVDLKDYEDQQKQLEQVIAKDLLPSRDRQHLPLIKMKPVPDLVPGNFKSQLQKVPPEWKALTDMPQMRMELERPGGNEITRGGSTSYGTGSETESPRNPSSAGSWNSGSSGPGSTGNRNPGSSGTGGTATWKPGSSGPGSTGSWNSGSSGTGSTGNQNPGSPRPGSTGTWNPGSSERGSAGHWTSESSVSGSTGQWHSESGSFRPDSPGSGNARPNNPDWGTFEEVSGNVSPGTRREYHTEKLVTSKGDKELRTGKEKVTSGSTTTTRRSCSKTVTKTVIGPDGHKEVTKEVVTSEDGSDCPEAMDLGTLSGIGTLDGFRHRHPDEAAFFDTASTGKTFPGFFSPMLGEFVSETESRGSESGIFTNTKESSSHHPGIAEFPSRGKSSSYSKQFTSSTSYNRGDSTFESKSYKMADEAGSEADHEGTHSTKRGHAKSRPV
T1 sequence 2: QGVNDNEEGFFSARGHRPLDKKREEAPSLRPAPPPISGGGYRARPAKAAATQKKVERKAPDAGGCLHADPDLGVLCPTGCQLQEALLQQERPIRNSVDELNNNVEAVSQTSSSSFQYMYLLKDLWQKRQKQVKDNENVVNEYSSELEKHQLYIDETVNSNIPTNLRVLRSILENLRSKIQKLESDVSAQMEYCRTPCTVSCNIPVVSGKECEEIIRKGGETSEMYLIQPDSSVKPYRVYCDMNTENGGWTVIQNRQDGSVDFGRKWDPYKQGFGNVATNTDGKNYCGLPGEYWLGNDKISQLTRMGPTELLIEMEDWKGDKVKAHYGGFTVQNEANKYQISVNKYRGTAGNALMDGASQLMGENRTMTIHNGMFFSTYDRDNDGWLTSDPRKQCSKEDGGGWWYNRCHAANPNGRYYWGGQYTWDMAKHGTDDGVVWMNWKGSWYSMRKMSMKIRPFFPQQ
T1 sequence 3: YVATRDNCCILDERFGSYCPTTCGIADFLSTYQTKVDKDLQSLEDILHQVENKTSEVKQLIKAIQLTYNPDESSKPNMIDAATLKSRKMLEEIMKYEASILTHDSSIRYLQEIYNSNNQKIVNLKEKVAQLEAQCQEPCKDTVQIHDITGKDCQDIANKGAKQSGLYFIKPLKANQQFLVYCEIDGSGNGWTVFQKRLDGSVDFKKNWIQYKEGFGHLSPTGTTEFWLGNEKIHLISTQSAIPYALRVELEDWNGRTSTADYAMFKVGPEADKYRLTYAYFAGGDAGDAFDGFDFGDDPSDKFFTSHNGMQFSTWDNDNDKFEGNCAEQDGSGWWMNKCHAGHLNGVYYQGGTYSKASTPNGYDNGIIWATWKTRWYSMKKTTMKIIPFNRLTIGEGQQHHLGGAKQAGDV
Protocol: Plates were washed once with PBS and blocked with 1% BSA in PBS for 1 h. Fifty □l of 5 and 10 µM concentrations of purified His-tag proteins in the blocking buffer were added and incubated at ambient temperature for 2 h. Plates were washed three times with 0.05% Tween20 in PBS and incubated 2 h with 1:3000 dilution of His₆-tag monoclonal antibody (Amersham Biosciences Corp., Piscataway, N.J.) in blocking buffer. After three washes, 1:3000 dilution of alkaline phosphatase-conjugated anti-mouse antibody in blocking buffer was added to the wells and incubated 2 h. Finally, signal was detected with nitrobluetetrazolium (NBT) and 5-bromo-4-chloro-3-indolyl-phosphate (BCIP) in 0.1 M NaHCO₃, 1 mM MgCl₂, pH 9.8. Absorbance at 405 nm was measured with an ELISA reader

human fibrinogen [2] = molecular target: T1, human fibrinogen; experiment: ELISA, ECM protein coated, recombinant protein detected with mouse antiserum; positive if signal 2.5x background
human fibrinogen [3] = molecular target: T1, human fibrinogen; experiment: screen of binding to ECM proteins; format not detailed for EF1269

Row | Binder | binding result (human fibrinogen [1]) | other results
1 | B1 | binds | –
2 | B2 | binds | –
3 | B3 | – | binding result (human fibrinogen [2]): binds
4 | B4 | – | binding result (human fibrinogen [3]): no binding
